Experiments:
Assay type in all cases: biochemical
[1] = biological target: T1, SIRT2 (Homo sapiens, UniProt Q8IXJ6); experiment: In vitro deacetylation assay, acetylated tubulin as substrate of purified SIRT2; conditions: nicotinamide 5 mM, increasing amounts of DBC1 (FIG. 3d)
T1 construct: made in house; host or cells: transfected mammalian cells (293 cells are named for the Flag-SIRT constructs)
T1 sequence (Q8IXJ6 1-389): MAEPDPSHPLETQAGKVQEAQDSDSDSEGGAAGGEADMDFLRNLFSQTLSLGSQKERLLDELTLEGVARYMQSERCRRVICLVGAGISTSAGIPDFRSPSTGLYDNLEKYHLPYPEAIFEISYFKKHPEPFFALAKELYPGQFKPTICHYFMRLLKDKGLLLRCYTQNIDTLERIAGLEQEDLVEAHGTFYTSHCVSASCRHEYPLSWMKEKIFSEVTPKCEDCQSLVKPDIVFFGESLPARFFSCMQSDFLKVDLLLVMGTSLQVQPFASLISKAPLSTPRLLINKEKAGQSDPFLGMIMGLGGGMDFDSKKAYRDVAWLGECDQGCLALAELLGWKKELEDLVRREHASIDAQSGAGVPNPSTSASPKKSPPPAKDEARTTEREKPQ

[2] = biological target: T2, SIRT1 (Homo sapiens, UniProt Q96EB6); experiment: In vitro deacetylation assay, acetylated p53 as substrate of purified Flag-SIRT1; conditions: purified system, 50 μM NAD, dose dependent, Western blot (FIG. 3c)
T2 construct: made in house
T2 sequence (Q96EB6 1-747): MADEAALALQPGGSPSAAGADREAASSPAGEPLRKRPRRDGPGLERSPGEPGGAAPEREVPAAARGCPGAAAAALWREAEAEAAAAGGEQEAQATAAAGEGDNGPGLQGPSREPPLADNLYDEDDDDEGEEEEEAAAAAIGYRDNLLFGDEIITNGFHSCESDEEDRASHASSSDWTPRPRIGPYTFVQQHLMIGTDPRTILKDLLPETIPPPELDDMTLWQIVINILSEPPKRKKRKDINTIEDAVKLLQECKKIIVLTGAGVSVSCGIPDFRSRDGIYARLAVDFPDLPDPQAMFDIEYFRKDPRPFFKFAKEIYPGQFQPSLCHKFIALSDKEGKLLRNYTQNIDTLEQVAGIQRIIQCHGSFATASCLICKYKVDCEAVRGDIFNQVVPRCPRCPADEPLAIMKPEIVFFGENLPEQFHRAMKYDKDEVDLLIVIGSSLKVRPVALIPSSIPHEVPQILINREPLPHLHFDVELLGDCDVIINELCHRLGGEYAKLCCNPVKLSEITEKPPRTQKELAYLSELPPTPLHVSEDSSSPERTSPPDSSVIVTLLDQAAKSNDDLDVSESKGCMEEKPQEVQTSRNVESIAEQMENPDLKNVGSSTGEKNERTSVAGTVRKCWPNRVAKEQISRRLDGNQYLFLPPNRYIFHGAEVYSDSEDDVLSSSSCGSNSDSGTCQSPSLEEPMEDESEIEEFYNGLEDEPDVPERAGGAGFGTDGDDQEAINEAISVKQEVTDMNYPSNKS
Procedure: FIG. 3. DBC1 inhibits SIRT1 mediated deacetylation of p53 (a) Fractionation of immunoprecipitated F-SIRT1 complex. 293 cells were transfected with Flag-tagged SIRT1 and Flag-SIRT1 complexes were subsequently purified by M2-immunoprecipitation in FLAG-lysis buffer. Flag-SIRT1 complex was eluted in 100 ul of elution buffer and half of the elution was fractioned by size-exclusion chromatography on a Sepherose12 Column on the SMART system. 10% of each fraction was analyzed by Western Blot for DBC1 (upper panel) and SIRT1 (lower panel). (b) DBC1 inhibits SIRT1 mediated deacetylation of p53 in vitro. […] The reactions were resolved on SDS-PAGE and analyzed by Western Blot using antibodies specific for acetylated p53, total p53 (DO-1), SIRT1 and DBC1. […] The reactions were resolved on SDS-Page and analyzed by Western Blot using antibodies specific for acetylated p53, total p53, SIRT1 and DBC1. […]
Although the deacetylase activity of SIRT1 is essential for its function, it is unknown how this activity is regulated. When purified Flag-SIRT1 complexes from human cells were analyzed by gel-filtration chromatography on a Superose 12 column (SMART system), SIRT1 and DBC1 polypeptides co-eluted in fraction 15 with an apparent molecular weight of 440 KDa (lane 4, FIG. 3a). […]

[3] = biological target: HDAC1 (Homo sapiens, UniProt Q13547); experiment: In vitro deacetylation of p53 by purified HDAC1 complex; conditions: purified HDAC1 complexes, increasing amounts of DBC1 (FIG. 9)
Procedure: FIG. 9. Effect of DBC1 on HDAC1 mediated p53 deacetylation in vitro. Purified HDAC1 complex was used to deacetylate p53 in vitro (lane 2). Increasing amounts of DBC1 were added in addition to HADC1 (lanes 3-4) to investigate whether DBC1 can inhibit p53 deacetylation by HDAC1. […] The samples were resolved by SDS-PAGE and analyzed by Western Blot using antibodies for acetylated p53, total p53 (DO-1), HDAC1 and DBC1.
Finally, p53 could also be deacetylated by purified HDAC1 complexes as previously shown (Luo, 2000) (lane 2, FIG. 9); this deacetylase activity was not repressed by DBC1 (lanes 3-4).

HDAC1, sequence (Q13547 whole entry, species assumed): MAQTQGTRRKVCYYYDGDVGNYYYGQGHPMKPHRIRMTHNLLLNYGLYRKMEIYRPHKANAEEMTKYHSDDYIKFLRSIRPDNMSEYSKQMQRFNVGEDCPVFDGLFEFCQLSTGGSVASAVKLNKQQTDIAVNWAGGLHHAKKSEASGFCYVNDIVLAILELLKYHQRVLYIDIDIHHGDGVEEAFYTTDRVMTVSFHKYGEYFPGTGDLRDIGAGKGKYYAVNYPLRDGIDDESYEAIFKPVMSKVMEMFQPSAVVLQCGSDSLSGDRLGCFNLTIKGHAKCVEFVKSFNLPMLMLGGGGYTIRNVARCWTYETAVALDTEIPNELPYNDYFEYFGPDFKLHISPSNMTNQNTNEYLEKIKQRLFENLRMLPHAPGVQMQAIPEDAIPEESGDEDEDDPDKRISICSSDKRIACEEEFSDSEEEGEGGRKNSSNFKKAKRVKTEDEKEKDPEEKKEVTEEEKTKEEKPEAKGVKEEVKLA

SIRT2-mediated deacetylation of acetylated tubulin [1] | SIRT1-mediated deacetylation of acetylated p53 [2] | HDAC1-mediated deacetylation of p53 [3] | Compound
inhibited | – | – | NC(=O)c1cccnc1 [nicotinamide, reference compound]
not affected | strongly repressed | not repressed | Flag-DBC1: Flag-tagged Deleted in Breast Cancer 1 protein purified by M2 immunoprecipitation under high stringency
